Target: cdc37_human CDC37 (UniProt Q16543)
Sequence (Q16543 whole entry): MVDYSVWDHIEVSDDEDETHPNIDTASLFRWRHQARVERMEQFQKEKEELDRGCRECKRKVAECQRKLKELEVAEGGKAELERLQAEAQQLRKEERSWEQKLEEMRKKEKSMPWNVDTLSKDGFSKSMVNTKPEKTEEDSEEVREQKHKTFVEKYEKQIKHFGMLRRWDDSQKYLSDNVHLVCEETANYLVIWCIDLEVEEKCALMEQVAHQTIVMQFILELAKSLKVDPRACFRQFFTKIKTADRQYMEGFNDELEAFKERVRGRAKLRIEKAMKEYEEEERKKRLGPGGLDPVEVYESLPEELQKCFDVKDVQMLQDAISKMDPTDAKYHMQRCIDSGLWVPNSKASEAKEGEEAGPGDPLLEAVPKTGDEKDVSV

Leucine-rich repeat serine/threonine-protein kinase 2 (Homo sapiens), Q5S007 G2385R
effect of a mutation on the interaction: increasing interaction
